# According to US8591913B2, “Methods of decreasing adipose tissue” (Toru Miyazaki, priority 2009, dated 2013):
# How the values were obtained:
# mouse CD36 = target: T1, mouse CD36 (Mus musculus, UniProt Q08857); assay: Binding of AIM to CD36-overexpressing HEK293 cells (confocal microscopy); details: HEK293 cells overexpressing FLAG-tagged mouse CD36, cultured with mouse AIM for 3 hours
# T1 construct: expressed in transfected cells; host or cells: HEK293 (called HEK293T)
# Description: CD36 is a twice-transmembrane-type molecule, is expressed on adipocytes and macrophages, and is involved in intracellular internalization of many molecules including fatty acids, LDL, and the like. Thus, HEK293 cells in which mouse CD36 fused with a FLAG-tag at its C terminus was overexpressed were produced, and the cells were cultured with mouse AIM for 3 hours. Subsequently, the cells were collected, stained using an anti-AIM antibody and an anti-CD36 antibody, and observed under a confocal microscope.
# AIM-/- macrophages = AIM-/- macrophages loaded with recombinant AIM molecules; Document 1; cited from earlier work
# [1] = Stability of AIM functions (drying and redissolution, acidic condition); type: physicochemical
# 3T3-L1 cells [2] = assay: Expression of genes associated with adipocyte differentiation, quantitative RT-PCR; type: cell-based; details: mouse AIM
# Description: The cells cultured in the above-mentioned five schedules (a) to (e) in Examples 2 and 3 above were collected on the 10th day (day 12) after the initiation of the stimuli for differentiation induction, and the expression of genes associated with adipose differentiation was analyzed using quantitative RT-PCR (QPCR).
# 3T3-L1 cells [3] = assay: Endocytosis of AIM into differentiated 3T3-L1 cells (confocal and immunoelectron microscopy); type: cell-based, mouse
# Description: Subsequently, the cells were collected, and intracellularly stained using an anti-AIM antibody. Further, nuclei in the cells were stained using DAPI.
# FIG. 16A and FIG. 16B show immunoelectron micrographs of the cells cultured for 3 hours (3 hr) and 12 hours (overnight) after being loaded with AIM, respectively.
# CD36 [4] = target: T2, CD36 (Mus musculus, UniProt Q08857); assay: Internalization of AIM into 3T3-L1 adipocytes with or without CD36 neutralizing antibody; type: cell-based
# T2 construct: endogenous in cells; host or cells: differentiated 3T3-L1 adipocytes
# Description: Further, in order to confirm that AIM is internalized via CD36, a neutralizing antibody which inhibited the binding of a ligand to CD36 was simultaneously loaded when the 3T3-L1 adipocyte differentiated by the above-mentioned differentiation induction was loaded with AIM. Subsequently, the cultured 3T3-L1 adipocytes were collected, and stained using an anti-AIM antibody. The 3T3-L1 adipocytes loaded with AIM alone without loading the neutralizing antibody against CD36 were cultured and stained in the same manner as described above.
# FAS = target: T3, FAS (Mus musculus, UniProt P19096); assay: FAS enzyme activity in lysates of loaded 3T3-L1 cells (malonyl-CoA consumption); type: cell-based; details: mouse AIM 5 μg/mL
# T3 construct: cell lysates were prepared, and the enzyme activity of FAS was measured; endogenous in cells; host or cells: 3T3-L1 cells (differentiating or differentiated)
# Description: Whether AIM affected an enzyme activity of FAS or not was examined.
# In addition, as a schedule (f) similar to the above-mentioned schedule (e), AIM was loaded for 4 days (day 8 to day 12) after the 3T3-L1 cells differentiated, subsequently the cells were collected on the 10th day (day 12) after the initiation of the differentiation induction, cell lysates were prepared, and the enzyme activity of FAS was measured. The enzyme activity of FAS was measured based on a consumption amount of malonyl-CoA.
# In addition, using a FAS inhibitor (C75) in place of AIM, the FAS inhibitor at a concentration of 25 μM was loaded according to the schedules (d) and (f), and as was the case with the above-mentioned AIM, the cells were collected on the 2nd day (day 4: schedule (d)) and 10th day (day 12: schedule (f)) after the initiation of the differentiation induction, and the enzyme activity of FAS was measured.
# Further, for comparison, the cells cultured without loading AIM in the above-mentioned schedule (a) were also collected at times of the 2nd day (day 4) and 10th day (day 12) after the initiation of the differentiation induction, and the enzyme activity of FAS was measured.
# FIG. 11B and FIG. 11C illustrate the results of measuring the FAS enzyme activity (Fatty acid synthase activity) (nmol NADPH/min/mg protein). FIG. 11B illustrates the results obtained on the 2nd day (day 4) after the initiation of the differentiation induction in the case of loading no AIM according to the schedule (a) (None), the case of loading AIM according to the schedule (d) (AIM (5 μg/mL)), and the case of loading the FAS inhibitor according to the schedule (d) (C75 (25 μM)). FIG. 11C illustrates the results obtained on the 10th day (day 12) after the initiation of the differentiation induction in the case of loading no AIM according to the schedule (a) (None), the case of loading AIM according to the schedule (f) (AIM (5 μg/mL)), and the case of loading the FAS inhibitor according to the schedule (f) (C75 (25 μM)).
# CD36 [5] = target: T2, CD36; assay: Incorporation of intravenously injected rAIM into adipose tissue of CD36-/- and CD36+/+ mice; type: in vivo; details: mouse rAIM 300 μg/mouse intravenous, 16 hours, epididymal adipose tissue
# Description: Mouse rAIM was intravenously injected into each of a CD36^−/− mouse which was deficient for CD36 and a wild-type CD36^+/+ mouse, and the incorporation of rAIM into the adipose tissues was analyzed. That is, an injection prepared by dissolving rAIM in PBS was intravenously injected into each of the CD36^−/− mouse and the CD36^+/+ mouse (300 μg/mouse). At 16 hours after the injection, the mice were sacrificed, and tissue sections were made from their epididymal adipose tissue. Then, the tissue sections were stained with an anti-AIM antibody.
# [6] = schedule (d): day 2 to day 4, cells collected day 12
# T2 sequence (Q08857 whole entry): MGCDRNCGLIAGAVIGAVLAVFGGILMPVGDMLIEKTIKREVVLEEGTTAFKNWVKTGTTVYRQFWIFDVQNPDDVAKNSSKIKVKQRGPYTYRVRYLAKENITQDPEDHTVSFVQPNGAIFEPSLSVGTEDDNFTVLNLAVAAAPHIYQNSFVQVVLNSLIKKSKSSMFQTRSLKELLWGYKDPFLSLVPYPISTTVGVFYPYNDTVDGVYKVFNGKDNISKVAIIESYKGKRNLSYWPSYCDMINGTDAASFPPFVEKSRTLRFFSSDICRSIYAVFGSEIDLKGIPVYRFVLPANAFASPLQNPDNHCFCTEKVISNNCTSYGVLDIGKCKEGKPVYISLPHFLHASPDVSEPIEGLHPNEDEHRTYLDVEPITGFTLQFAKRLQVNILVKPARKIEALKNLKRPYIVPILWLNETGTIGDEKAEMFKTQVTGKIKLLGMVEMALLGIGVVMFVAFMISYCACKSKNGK
# T3 sequence (P19096 whole entry): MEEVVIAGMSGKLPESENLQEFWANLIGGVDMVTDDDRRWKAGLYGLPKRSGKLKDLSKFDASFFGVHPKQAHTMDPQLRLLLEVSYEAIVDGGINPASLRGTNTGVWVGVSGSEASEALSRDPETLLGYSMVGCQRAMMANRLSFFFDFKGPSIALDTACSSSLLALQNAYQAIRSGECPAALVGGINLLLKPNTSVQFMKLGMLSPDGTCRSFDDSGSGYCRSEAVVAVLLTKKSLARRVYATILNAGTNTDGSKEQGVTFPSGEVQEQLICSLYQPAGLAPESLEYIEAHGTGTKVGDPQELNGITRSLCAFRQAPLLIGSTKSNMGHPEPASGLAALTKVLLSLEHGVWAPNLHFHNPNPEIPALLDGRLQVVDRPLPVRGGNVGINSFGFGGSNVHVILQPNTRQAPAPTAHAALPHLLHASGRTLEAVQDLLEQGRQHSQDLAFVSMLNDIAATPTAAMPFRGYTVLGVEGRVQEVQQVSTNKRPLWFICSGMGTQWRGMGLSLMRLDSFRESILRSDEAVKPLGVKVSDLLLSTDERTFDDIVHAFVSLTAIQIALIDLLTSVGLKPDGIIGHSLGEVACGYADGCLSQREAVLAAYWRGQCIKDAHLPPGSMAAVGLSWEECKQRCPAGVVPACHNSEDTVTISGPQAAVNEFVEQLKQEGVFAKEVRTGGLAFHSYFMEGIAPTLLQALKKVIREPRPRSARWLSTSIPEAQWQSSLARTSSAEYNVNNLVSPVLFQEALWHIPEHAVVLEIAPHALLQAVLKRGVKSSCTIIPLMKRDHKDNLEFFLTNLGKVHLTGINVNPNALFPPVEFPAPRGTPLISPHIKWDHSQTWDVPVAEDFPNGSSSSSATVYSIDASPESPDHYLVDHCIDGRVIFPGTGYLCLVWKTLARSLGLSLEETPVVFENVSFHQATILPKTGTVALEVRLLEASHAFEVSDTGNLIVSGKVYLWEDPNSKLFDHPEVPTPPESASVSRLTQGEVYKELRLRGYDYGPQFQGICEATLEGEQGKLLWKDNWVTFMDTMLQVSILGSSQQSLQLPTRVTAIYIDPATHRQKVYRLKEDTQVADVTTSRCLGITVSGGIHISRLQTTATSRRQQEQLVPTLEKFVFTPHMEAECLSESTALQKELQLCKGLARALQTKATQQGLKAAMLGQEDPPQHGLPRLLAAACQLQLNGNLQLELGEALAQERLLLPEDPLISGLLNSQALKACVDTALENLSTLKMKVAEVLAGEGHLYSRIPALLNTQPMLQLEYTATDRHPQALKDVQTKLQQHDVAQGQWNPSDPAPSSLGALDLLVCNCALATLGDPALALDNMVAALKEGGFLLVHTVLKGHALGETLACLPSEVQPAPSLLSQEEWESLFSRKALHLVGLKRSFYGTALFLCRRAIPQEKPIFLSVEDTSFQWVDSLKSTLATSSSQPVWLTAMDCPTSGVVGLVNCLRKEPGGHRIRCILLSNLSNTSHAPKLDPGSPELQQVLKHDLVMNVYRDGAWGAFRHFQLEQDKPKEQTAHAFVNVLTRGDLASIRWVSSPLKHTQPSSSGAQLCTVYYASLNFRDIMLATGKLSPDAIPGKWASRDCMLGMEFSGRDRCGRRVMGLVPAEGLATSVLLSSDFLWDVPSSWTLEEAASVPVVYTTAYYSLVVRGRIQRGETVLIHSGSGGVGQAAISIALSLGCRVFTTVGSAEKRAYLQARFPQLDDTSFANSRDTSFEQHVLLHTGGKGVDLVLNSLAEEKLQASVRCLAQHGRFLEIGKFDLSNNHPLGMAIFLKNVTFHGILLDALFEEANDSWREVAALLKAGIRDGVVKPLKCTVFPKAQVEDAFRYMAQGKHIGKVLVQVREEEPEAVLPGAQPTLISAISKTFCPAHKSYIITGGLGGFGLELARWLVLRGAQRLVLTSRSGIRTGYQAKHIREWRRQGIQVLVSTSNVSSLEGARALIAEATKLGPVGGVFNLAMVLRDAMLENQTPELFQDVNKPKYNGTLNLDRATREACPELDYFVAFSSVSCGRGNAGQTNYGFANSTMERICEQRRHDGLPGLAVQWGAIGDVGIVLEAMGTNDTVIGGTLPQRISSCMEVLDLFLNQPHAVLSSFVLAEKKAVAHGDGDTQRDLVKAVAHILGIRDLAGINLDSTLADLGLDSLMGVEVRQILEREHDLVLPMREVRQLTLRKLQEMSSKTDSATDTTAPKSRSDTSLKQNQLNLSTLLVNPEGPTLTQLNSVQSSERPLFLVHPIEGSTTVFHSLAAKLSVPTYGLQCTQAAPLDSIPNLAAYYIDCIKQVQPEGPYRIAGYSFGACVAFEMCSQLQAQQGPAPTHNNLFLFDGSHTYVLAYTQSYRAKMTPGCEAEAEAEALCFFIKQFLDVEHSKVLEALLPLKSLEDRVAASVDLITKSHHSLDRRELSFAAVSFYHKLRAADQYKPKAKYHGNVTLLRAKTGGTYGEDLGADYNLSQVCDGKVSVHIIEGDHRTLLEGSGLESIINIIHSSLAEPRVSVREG
# T1 sequence (Q08857 whole entry): as the sequence (Q08857 whole entry) above
molecule,measurement,setting,value
"AIM: apoptosis inhibitor of macrophage, secretory protein with three SRCR domains; recombinant mouse and human AIM in Example 2, mouse AIM in Examples 3-16 (protein) ESPTKVQLVGGAHRCEGRVEVEHNGQWGTVCDDGWDRRDVAVVCRELNCGAVIQTPRGASYQPPASEQRVLIQGVDCNGTEDTLAQCELNYYVFDCSHEEDAGAQCENPDSDLLFIPEDVRLVDGPGHCQGRVEVLHQSQWSTVCKAGWNLQVSKVVCRQLGCGRALLTYGSCNKNTQGKGPIWMGKMSCSGQEANLRSCLLSRLENNCTHGEDTWMECEDPFELKLVGGDTPCSGRLEVLHKGSWGSVCDDNWGEKEDQVVCKQLGCGKSLHPSPKTRKIYGPGAGRIWLDDVNCSGKEQSLEFCRHRLWGYHDCTHKEDVEVICTDFDV",binding of AIM to sites at which CD36 was expressed on the cells,mouse CD36,had been bound to sites
same,resistance to the apoptosis,AIM-/- macrophages,enhanced
same,functions of AIM after drying and redissolution,"[1]; drying such as lyophilization, redissolution",not lost
same,functions of AIM under an acidic condition,[1]; pH of about 2 to 3,does not lose its functions
same,expression of the C/EBPα gene,3T3-L1 cells [2]; schedule (b): day 2 to day 12,almost completely inhibited
same,expression of the CD36 gene,3T3-L1 cells [2]; schedule (b): day 2 to day 12,almost completely inhibited
same,expression of the FAS gene,3T3-L1 cells [2]; schedule (b): day 2 to day 12,slightly increased
same,expression of the Glut4 gene,3T3-L1 cells [2]; schedule (b): day 2 to day 12,almost completely inhibited
same,expression of the PPARγ gene,3T3-L1 cells [2]; schedule (b): day 2 to day 12,almost completely inhibited
same,gene expression patterns compared with no AIM,3T3-L1 cells [2]; schedule (c): day -2 to day 2,not changed
same,expression of the FAS gene,3T3-L1 cells [2]; schedule (d): day 2 to day 4,slightly increased
same,expression of the C/EBPα gene,3T3-L1 cells [2]; [6],almost completely inhibited
same,expression of the CD36 gene,3T3-L1 cells [2]; [6],almost completely inhibited
same,expression of the Glut4 gene,3T3-L1 cells [2]; [6],almost completely inhibited
same,expression of the PPARγ gene,3T3-L1 cells [2]; [6],almost completely inhibited
same,gene expression patterns compared with no AIM,3T3-L1 cells [2]; schedule (e): day 6 to day 12,not changed
same,"localisation of AIM, immunoelectron microscope",3T3-L1 cells [3]; cells cultured in the presence of AIM for 3 hours,accumulated like the dots on the membrane of particles thought to be endosomes
same,"localisation of AIM, immunoelectron microscope",3T3-L1 cells [3]; cells cultured in the presence of AIM for 12 hours,migrated therefrom into the cytoplasm
same,"accumulation of AIM on phagosomes, phagolysosomes, or mitochondria",3T3-L1 cells [3]; immunoelectron microscope,No AIM was accumulated
same,"endocytosis of AIM into the cytoplasm, confocal microscope","3T3-L1 cells [3]; mouse AIM 5 μg/mL, 3 hours, day 4 of culture",endocytosed like dots
same,internalization of AIM into the cells,CD36 [4]; neutralizing antibody against CD36 loaded simultaneously,not observed
same,internalization of AIM into the cells,CD36 [4]; neutralizing antibody against CD36 not loaded,had been internalized into the cells
same,enzyme activity of FAS,"FAS; schedule (d): day 2 to day 4, cells collected day 4, compared with no AIM",remarkably reduced
same,enzyme activity of FAS,"FAS; schedule (f): day 8 to day 12, cells collected day 12, compared with no AIM",remarkably reduced
"mouse AIM: protein consisting of the amino acid sequence shown in SEQ ID NO: 5; recombinant, purified from HEK293T culture supernatant (protein, mouse, recombinant, purified from HEK293T culture supernatant) MAPLFNLMLAILSIFVGSCFSESPTKVQLVGGAHRCEGRVEVEHNGQWGTVCDDGWDRRDVAVVCRELNCGAVIQTPRGASYQPPASEQRVLIQGVDCNGTEDTLAQCELNYYVFDCSHEEDAGAQCENPDSDLLFIPEDVRLVDGPGHCQGRVEVLHQSQWSTVCKAGWNLQVSKVVCRQLGCGRALLTYGSCNKNTQGKGPIWMGKMSCSGQEANLRSCLLSRLENNCTHGEDTWMECEDPFELKLVGGDTPCSGRLEVLHKGSWGSVCDDNWGEKEDQVVCKQLGCGKSLHPSPKTRKIYGPGAGRIWLDDVNCSGKEQSLEFCRHRLWGYHDCTHKEDVEVICTDFDV","amount of rAIM internalized into the adipocytes, CD36-/- mouse compared with CD36+/+ mouse",CD36 [5],remarkably smaller
